Assay results from article PMC9100220, “Fluorescence Lifetime Phasor Analysis of the Decamer–Dimer Equilibrium of Human Peroxiredoxin 1” (International Journal of Molecular Sciences, 2022).

Columns and labels:
[1] = target: the molecule itself; assay: SEC; Superdex 200 5/150 GL, PBS pH 7.4 with 1 mM DTT, room temperature; high hPrx1 concentrations (e.g. 20 uM): peak at 3.9 min
[2] = target: the molecule itself; assay: SEC; Superdex 200 5/150 GL, PBS pH 7.4 with 1 mM DTT, room temperature; low hPrx1 concentrations (e.g. 0.5 uM): peak at 5.2 min

B1: human peroxiredoxin 1 (enzyme, UniProt Q06830 1-199, looked up)
chain: MSSGNAKIGHPAPNFKATAVMPDGQFKDISLSDYKGKYVVFFFYPLDFTFVCPTEIIAFSDRAEEFKKLNCQVIGASVDSHFCHLAWVNTPKKQGGLGPMNIPLVSDPKRTIAQDYGVLKADEGISFRGLFIIDDKGILRQITVNDLPVGRSVDETLRLVQAFQFTDKHGEVCPAGWKPGSDTIKPDVQKSKEYFSKQK
notes: human peroxiredoxin 1 (hPrx1), recombinant; The protein is an obligate homodimer; five dimers form a ring-shaped decamer; It was used in the reduced state, with 1 mM DTT in all measurements; also called hPrx1; human Prx1; source: E. coli BL21(DE3), purified from bacterial lysates; reduced with 10 mM DTT before all experiments
[1]
  stoichiometry N: 10
[2]
  stoichiometry N: 2
